B1: Retinoic acid receptor beta, residues 85 to 161; numbered along this chain, P10826 (parent)
chain: YKPCFVCQDKSSGYHYGVSACEGCKGFFRRSIQKNMIYTCHRDKNCVINKVTRNRCQYCRLQKCFEVGMSKESVRND

Variants of: B1
Assay: abundance fitness (aPCA) (normalised: wild type 0, dead -1); higher = more abundant; growth selection in yeast, the domain comes from the species named
Details: Homo sapiens

Abundance fitness: each site, then its substitutions
T39: L 0.059 | D 0.078 | A -0.017 | M 0.061 | K 0.056 | C -0.047 | G -0.156 | Y -0.009 | W -0.097 | H 0.029 | N 0.003 | S -0.01 | R -0.01 | F 0.105 | Q 0.076 | E -0.025 | P -0.327
Y38: W -0.282 | Q -0.739 | N -0.28 | M -0.466 | P -0.26 | C -0.899 | H -0.414 | G -0.523 | S -0.417 | R -0.499 | D -0.997 | E -0.472 | T -0.173 | A -0.59 | F -0.187
I37: Y -0.345 | R -0.009 | Q 0.1 | S -0.085 | N 0.043 | W -0.119 | P -0.118 | T -0.098 | V 0.032
R42: W 0.15 | A 0.203 | I -0.114 | K 0.067 | M 0.228 | E 0.07 | N 0.115 | H -0.412 | V 0.177 | T -0.016 | C 0.145 | Y 0.033 | D -0.047 | S 0.014 | Q 0.121 | P -1.01
K44: T -0.043 | C -0.113 | Q 0.166 | I -0.009 | Y -0.321 | E -0.015 | S 0.056 | W -0.208 | M 0.032 | D -0.059 | L -0.059 | V -0.356 | R 0 | A -0.004 | G 0.035 | F -0.283 | P -0.599 | H -0.322
V47: A 0.058 | G -0.096 | F -0.11 | C 0.003 | D 0.168
C40: R -0.883 | T -0.539 | S -0.885 | F -0.775 | G -0.817 | K -0.848 | Y -0.642 | M -0.568 | P -0.703 | A -0.901 | V -0.867 | W -0.594 | E -0.831 | L -0.555 | D -0.825 | I -0.667 | N -0.999
C46: D -0.352 | W -0.681 | F -0.988 | G -0.123 | H -0.475 | E -0.474 | N -0.704 | S -0.562 | K -1 | R -0.767 | V -0.737 | P -0.94 | T -0.53 | L -0.668 | Q -1.01 | I -0.711
H41: I -0.064 | N -0.121 | G -0.024 | W 0.016 | M 0.081 | S -0.089 | D 0.051 | P -0.044 | R -0.101 | A -0.006 | E 0.131 | Q 0.029 | T 0.129 | L -0.077 | K -0.103 | C -0.157 | Y -0.178
N45: K 0.053 | H -0.021 | W -0.302 | G -0.044 | Q 0.078 | P -0.025 | D -0.151 | E 0.049 | R 0.059 | I 0.054 | A 0.068 | F -0.251 | M -0.035 | S -0.057 | V 0.039 | Y -0.477 | L 0.02 | C 0.02
D43: E 0.07 | Y -0.103 | T 0.007 | W -0.169 | R -0.024 | Q -0.019 | M -0.076 | A 0.026 | I -0.038 | K -0.001 | C -0.436 | V -0.103 | H -0.32 | P -0.471 | S -0.034 | F -0.014 | N -0.072 | G 0.012 | L -0.066

Reference: the Human Domainome abundance scans (Beltran et al. 2025)
